{
  "source": "paper PMC4038462",
  "about": "“PAX6 Regulates Melanogenesis in the Retinal Pigmented Epithelium through Feed-Forward Regulatory Interactions with MITF” (PLoS Genetics, 2014)",
  "binders": {"B1": {"name": "3xFLAG-PAX6 (natural protein)", "chain": "not shown"}},
  "target": "T1, 3xFLAG-MITF (UniProt Q08874 1-526)",
  "T1 sequence (looked up)": "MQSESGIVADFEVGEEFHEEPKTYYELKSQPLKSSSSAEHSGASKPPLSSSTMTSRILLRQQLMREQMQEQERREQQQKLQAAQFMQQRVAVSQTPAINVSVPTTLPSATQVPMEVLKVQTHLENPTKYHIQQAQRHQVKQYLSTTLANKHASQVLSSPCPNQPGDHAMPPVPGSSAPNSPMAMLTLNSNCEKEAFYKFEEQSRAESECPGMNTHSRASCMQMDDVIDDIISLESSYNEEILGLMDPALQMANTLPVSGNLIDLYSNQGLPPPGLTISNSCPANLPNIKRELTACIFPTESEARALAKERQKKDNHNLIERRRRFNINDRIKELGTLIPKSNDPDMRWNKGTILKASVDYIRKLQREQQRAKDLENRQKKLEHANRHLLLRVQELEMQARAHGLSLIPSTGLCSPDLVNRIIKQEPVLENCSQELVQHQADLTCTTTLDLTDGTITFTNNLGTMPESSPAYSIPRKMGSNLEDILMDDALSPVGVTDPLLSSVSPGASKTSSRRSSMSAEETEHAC",
  "test": "cell-based or functional assay",
  "data": [
    {"binder": "B1", "values": [
      {"measurement": "luciferase reporter under the hTyr promoter in HeLa cells, fold change with MITF + PAX6 (MITF alone 12.6 fold)", "result": 71.3, "unit": "fold change"},
      {"measurement": "luciferase reporter under the mTyrp1 promoter in HeLa cells, fold change with MITF + PAX6 (MITF alone 5.6 fold; PAX6 alone no activation)", "result": 51.9, "unit": "fold change"},
      {"measurement": "luciferase reporter with four consecutive M-box elements in HeLa cells, fold activity with PAX6 and MITF together (MITF alone 6.6 fold; PAX6 alone none)", "result": 11.9, "unit": "fold"}
    ]}
  ]
}
